# Measurements taken from the nanobody polyreactivity screen of Harvey et al. (2022).
# Assay: yeast display, Sf9 membrane polyspecificity reagent, FACS + sequencing; frameworks hold sequencing errors
# Method in brief: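 A nanobody's polyreactivity label depends on the gate it was sorted from. Yeast display cells were stained with 10% biotinylated, detergent-solubilized Sf9 membrane reagent for 1 hour at 4 °C, enriched on streptavidin microbeads and sorted by FACS. The low and high (top ~1%) gates were set on anti-HA fluorescence for expression and streptavidin fluorescence for reagent binding.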
row,Sequence,polyreactivity (PSR sort gate)
1,QVQLVESGGGLVQAGGSLRLSCAASGRTFWVYAMGWYRQATGKERELVATISKSAGITSYADSVKGRFTFSRDNAKNTVYLQMNSLKPEDTAVFYCAADKSYRRVYYWGQGTQVTVSS,low polyreactivity
2,QVQLVESGGGLVQAGGSLRLSCAASGRTFWWYAMGWYRQAPGKERELVAAITQSGGSTFYADSVKGRFTISRDNAKNTVYLQMNSLKPEDTAVYYWGQGTQVTVSS,low polyreactivity
3,QVQLVESGGGLVQAGGSLRLSCAASGRTFWWYAMGWYRQAPGKERELVAGISGSTGTTHYADSVKGRFTISRDNAKNTVYLQMNSLKPEDTAGYYCAARRRYYRGFLFDYWGQGTQVTVSS,high polyreactivity
4,QVQLVESGGGLVQAGGSLRLSCAASGRTFWYNAMGWYRQAPGKERELVAAITSSGGSTYYADSVKGRFTISRDNAKNTVYLQMNSLKPEDTAVYYCNKRPGPYKWPPRHDYWGQGTQVTVSS,low polyreactivity
5,QVQLVESGGGLVQAGGSLRLSCAASGRTFWYNAMGWYRQAPGKERELVATINSVGSTNYADSVKGRFTISRDNAKNTVYLQMNSLKPEDTAVYDCNAGYGYVRGRKGGAIVKYYYWGQGTQVTVSS,high polyreactivity
6,QVQLVESGGGLVQAGGSLRLSCAASGRTFWYNARGWYRQAPGKERELVAAITRGGGRTYYADSVKGRFTISRDNAKNTVYLQMNSPKPEDTAVYYCADDSHYDMNYWGQGTQVTVSS,low polyreactivity
7,QVQLVESGGGLVQAGGSLRLSCAASGRTFWYYAMGWYREAPGKERELVAAITRGGRTNYADSVKGRFTISRDNAKNTVYLQMKSLKPEDTAVYYCAADYRYPAHSYGYWGQGTLVTVSS,high polyreactivity
8,QVQLVESGGGLVQAGGSLRLSCAASGRTFWYYAMGWYRQAPGKERELVAAITWSGSDTYYADSVKGRFTISRDNAKNTVYLLMNSLKPEDTAVYYCAAEYSYESSGYDYWGQGTQVTVSS,high polyreactivity
9,QVQLVESGGGLVQAGGSLRLSCAASGRTFWYYAMGWYRQAPGKERELVAGITFTGGRTYYADSVKGRFTISRDNAKNTVYLQMNSLKPEDTAVYYCAKATEYYAESDDYDYWGQGTQVTVSS,low polyreactivity
10,QVQLVESGGGLVQAGGSLRLSCAASGRTFWYYAMGWYRQAPGKERELVASISASGGSTFYADSVKGRFSISRDHAKNTVYLQMNSLKPEDTAVYYCAAKNAVWRRYEYWGQGTQVTVSS,high polyreactivity
11,QVQLVESGGGLVQAGGSLRLSCAASGRTFYANAMGWYRQAPGKERELVAAISRGGRTYYADSVKGRFTISRDNAKNTVYLQMNIMIPEDTSVYYCAARHTTTAVYSYYRADGGYWGQGTQVTVSS,low polyreactivity
12,QVQLVESGGGLVQAGGSLRLSCAASGRTFYANAMVWYRQAPGKERELVAGISYSGGNTYYADSVKGRFTISRDNAKNTVYIQMNSLKPEDTAVYYCAAATVWEYWTYEDWGQGTQVTVSS,low polyreactivity
13,QVQLVESGGGLVQAGGSLRLSCAASGRTFYAYAMGWYRQAPGKERELVAAINTSGGRTYYADSVKGRFTISRDNAKNTVYLLMNSLKPEDTAVYYCAADVFTFYPRRYDYWGQGTQVTVSS,low polyreactivity
14,QVQLVESGGGLVQAGGSLRLSCAASGRTFYAYAMGWYRQAPGKERELVAAINTSGGRTYYADSVKGRFTISRDNAKNTVYLQMNSLKPEDTAVYYCAADVYTFYPRRYDYWGQGTQVTVSS,low polyreactivity
15,QVQLVESGGGLVQAGGSLRLSCAASGRTFYAYAMGWYRQAPGKERELVAAISWRGGRTYYADSVKGRFTISRDNAKNTVYLQMNSLKPEDTAVYYCAAEYSYGFDYWGQGTQVTVSS,high polyreactivity
16,QVQLVESGGGLVQAGGSLRLSCAASGRTFYAYGMGWYRQAPGKERELVARISSSTGRTYYADSVKGRFTISRDNAKNTVYLQMNSLKPEDTAVYYCAALFYGYRGGGYGGPAAGDYWGQGTQVTVSS,high polyreactivity

row,Sequence,polyreactivity (PSR sort gate)
1,QVQLVESGGGLVQAGGSLRLSCAASGRTFYDNTMGWYRQAPGKERELVAAITRNGGSTYYADSVKGRFTISRDNAKNTVYLQMNSLKPEDTAVYYCAVYVAYLYSYYYWGQGTQVSVSS,low polyreactivity
2,QVQLVESGGGLVQAGGSLRLSCAASGRTFYDYAMGWYRQAPGKERELVAAISSRGGRTYYADSVKGRFTISRDNAKNTVYLQMNSLKPEDSAVYYCAKVVDYNDRDSWGQGTQVTVSS,high polyreactivity
3,QVQLVESGGGLVQAGGSLRLSCAASGRTFYDYDMGWYRQAPGKERELFAAISGGDSTYYADSVKGRFTISRDNAKNTFYLQLKSLKPEDTAVYDCAVTPRGLPYGAYLLYYWGQGTQVTVSS,low polyreactivity
4,QVQLVESGGGLVQAGGSLRLSCAASGRTFYDYDMGWYRQAPGKERELVATIRRDGSTYYADSVKGRFTISRDNAKNTVYLQMNSLKPEDTAVYYCAKDGGYPLDEPEFDYWGQGTQVTVSS,low polyreactivity
5,QVQLVESGGGLVQAGGSLRLSCAASGRTFYEYAMGWYRQAPGKERELVAAITRSGGSTYYADSVKGRFTISRDNAKNTVYLQMNSLKPEDTAVYYCAAYRLQYRVRYYTAYDYWGQGTQVTVSS,high polyreactivity
6,QVQLVESGGGLVQAGGSLRLSCAASGRTFYEYAMGWYRQAPGKESELVASIRSGGSTFYADSVKGRFTISRDNAKYTVYLQMNSLKPEDTAVYYCAAYRVPPYRYRFARVNYWGQGTQVTVSS,high polyreactivity
7,QVQLVESGGGLVQAGGSLRLSCAASGRTFYFNAMGWYRQAPGKERELVAAITNSGGSTYYADSVKGRFTISRDNAKNTVYLQMNSLKPEDTAVYYCAATYKDGYWLVPGYGYWGQGTQVTVSS,low polyreactivity
8,QVQLVESGGGLVQAGGSLRLSCAASGRTFYFNAMGWYRQAPGKERELVATITSDGSTNYADSVKGRFTISRDNAKNTVYLQMNSLKPEDTAVYYCAADYYRDIWPWYPLYNYWGQGTQVTVSS,low polyreactivity
9,QVQLVESGGGLVQAGGSLRLSCAASGRTFYFYPMGWYRQAPGKERELVAAIRSSGGSTNYADSVKGRFTISRDNAKNTVYLQMNSLKPEDTAVYYFAAKRRAKGNYAFYYWGQGTQVTVSS,high polyreactivity
10,QVQLVESGGGLVQAGGSLRLSCAASGRTFYFYTMGWYRQAPGKERELVAAITSGGSTNYADSVKGRFTISRDNAKNTVYLQMNSLKPEDTAVYYCAAAYWRPGVRFFGPYDYWGQGTQVTVSS,high polyreactivity
11,QVQLVESGGGLVQAGGSLRLSCAASGRTFYFYVKGWYRQAPAKERELVARISWSGGSTYYADSVKGRFTISRDNAKNTVYLQMNSLKPEDTAVYYCARQYIYPSSGEYDSWGQGTQVTVSS,low polyreactivity
12,QVQLVESGGGLVQAGGSLRLSCAASGRTFYGNAMGWYRQAPGKERELVAAITTGGGNTYYADSVKGRFTISRDHAKNTVYLQMNRLKPEDTAVYYCAAYERKFYTVSRWYKLDYWGQGTQVTVSS,high polyreactivity
13,QVQLVESGGGLVQAGGSLRLSCAASGRTFYGYAMGWYRQAPGKERELVAGISGRGTRTYYADSVKGRFTISRDNAKNTVYLQMNSLKPEDTAVYYCNAVSIGYYSQSLGLDYWGQGTQVTVSS,high polyreactivity
14,QVQLVESGGGLVQAGGSLRLSCAASGRTFYGYAMGWYRQAPGKERELVASISRDGSTNYADSVKGRFTISRDNAKNTVYLQMYSLKPEDTAVYYCAADIWYYRYPIYYYSYDYWGQGTQVTVSS,low polyreactivity
15,QVQLVESGGGLVQAGGSLRLSCAASGRTFYGYAMGWYRQPPGKERELVATISGSGGTTYYADSVKGRFTISRDNAKNTVYLQMNSLKPEDTAVYYCAADRYLYFYWWPHVGGSPTYGYWGQGTQVTVSS,high polyreactivity
